Experimental data reported in patent US20100159482A1 (LIFE TECHNOLOGIES, published 2010).
Values belong to the molecule of their own block, whether it stands above or below them. The star is where a group is joined. MeOSuc = COC(=O)CCC(=O)*; CH2Cl = ClC*

What was measured:
[1] = target: T1, proteinase K (UniProt P06873 106-384); experiment: computed, not measured: CDOCKER docking on PDB 3PRK, MM-PBSA rescoring, average of three poses
Procedure: Based on the studies cited in the previous examples, a study was carried out to examine the change in total binding free energy of peptide inhibitor to proteinase K to form the peptide-inhibitor complex. The molecular docking of inhibitors MeOSuc-AAPV-CH₂Cl (SEQ ID NO:2), MeOSuc-AAPL-CH₂Cl (SEQ ID NO:10), MeOSuc-AAAPV-CH₂Cl (SEQ ID NO:8), MeOSuc-AAAPL-CH₂Cl (SEQ ID NO:7), MeOSuc-AAAPF-CH₂Cl (SEQ ID NO:9), MeOSuc-AAPA-CH₂Cl (SEQ ID NO:1), and MeOSuc-AAPF-CH₂Cl (SEQ ID NO:5) into the binding site of Proteinase K was performed using CDOCKER of Discovery Studio V2.01 (1. (Accelrys Software Inc., Discovery Studio Modeling Environment, Release 2.01, San Diego: Accelrys Software Inc., 2008., trial version) which uses a CHARMm based Molecular Dynamics docking algorithm. The crystal structure of the protein complex covalently formed between proteinase K and MeOSuc-AAPA-CH₂Cl (SEQ ID NO:1) was used as a starting structure for molecular simulation (PDB CODE: 3PRK; Wolf W M et al. J. Biol. Chem. 1991, 266, 17695). Water molecules were removed from the protein complex, protonated at pH 8.0 and the structure was energy minimized using CHARMm force field with a convergence threshold of 0.05 kcal/mol A. Then, the inhibitor part was removed from the protein complex and was used to build the structures of MeOSuc-AAPV-CH₂Cl (SEQ ID NO:2) (see FIG. 8A), MeOSuc-AAPL-CH₂Cl (SEQ ID NO:10) (see FIG. 9A), MeOSuc-AAAPV-CH₂Cl (SEQ ID NO:8) (see FIG. 8B), MeOSuc-AAAPL-CH₂Cl (SEQ ID NO:7) (see FIG. 9B), MeOSuc-AAAPF-CH₂Cl (SEQ ID NO:9) (see FIG. 11B), MeOSuc-AAPA-CH₂Cl (SEQ ID NO:1) (see FIG. 10), and MeOSuc-AAPF-CH₂Cl (SEQ ID NO:5) (see FIG. 11A). A site sphere with a radius of 13A was created at center of the active site of inhibitor-free proteinase K.
The CDOCKER algorithm can generate several different orientations for each inhibitor in the active site of proteinase K within the site sphere and perform MD-based simulated annealing followed by final minimization. […] The MD simulation for each orientation consisted of 1000 steps at 2 fs per step and at 1000 K. No inherent restrictions were placed on the conformers of inhibitors.

[2] = target: T1, proteinase K; experiment: cell-based or functional assay

T1 sequence (P06873 106-384 limits assumed): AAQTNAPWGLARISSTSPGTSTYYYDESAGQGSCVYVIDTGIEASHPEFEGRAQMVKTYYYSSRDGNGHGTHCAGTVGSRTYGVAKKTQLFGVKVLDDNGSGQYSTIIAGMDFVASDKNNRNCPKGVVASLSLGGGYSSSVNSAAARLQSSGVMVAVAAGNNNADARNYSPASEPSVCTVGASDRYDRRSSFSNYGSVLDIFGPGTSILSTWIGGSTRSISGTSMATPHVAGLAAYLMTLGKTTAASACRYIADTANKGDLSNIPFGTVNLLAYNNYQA

B1: MeOSuc-AlaAlaAlaProVal-CH2Cl (peptide)
peptide: AAAPV
HELM: PEPTIDE1{[COC(=O)CCC(=O)[*:2]].A.A.A.P.V.[ClC[*:1]]}$$$$V2.0
SMILES: COC(=O)CCC(=O)N[C@@H](C)C(=O)N[C@@H](C)C(=O)N[C@@H](C)C(=O)N1CCC[C@H]1C(=O)N[C@H](C(=O)CCl)C(C)C
effective inhibitory concentration, beta-actin RT-qPCR from HeLa cell lysates [2]: 0.5 mM
ΔΔGBind (total binding free energy, calculated) [1]: 1.32 kcal/mol

B2: MeOSuc-AlaAlaAlaProPhe-CH2Cl (peptide)
peptide: AAAPF
HELM: PEPTIDE1{[COC(=O)CCC(=O)[*:2]].A.A.A.P.F.[ClC[*:1]]}$$$$V2.0
SMILES: COC(=O)CCC(=O)N[C@@H](C)C(=O)N[C@@H](C)C(=O)N[C@@H](C)C(=O)N1CCC[C@H]1C(=O)N[C@@H](Cc1ccccc1)C(=O)CCl
effective inhibitory concentration, beta-actin RT-qPCR from HeLa cell lysates [2]: 0.1 mM
ΔΔGBind (total binding free energy, calculated) [1]: 9.95 kcal/mol

Molecule: MeOSuc-AAPV-CH2Cl (also called MeOSuc-AAPV-CH2Cl; MSVCK) [methoxysuccinyl-AlaAlaProVal-chloromethyl ketone]
effective inhibitory concentration, beta-actin RT-qPCR from HeLa cell lysates [2]: 0.5 mM
lowest inhibitory concentration in the stopped mixture, indirect linked RT-qPCR assay [2]: ~0.25 mM
ΔΔGBind (total binding free energy, calculated) [1]: -6.63 kcal/mol

B3: MeOSuc-AlaAlaProLeu-CH2Cl (peptide)
peptide: AAPL
HELM: PEPTIDE1{[COC(=O)CCC(=O)[*:2]].A.A.P.L.[ClC[*:1]]}$$$$V2.0
SMILES: COC(=O)CCC(=O)N[C@@H](C)C(=O)N[C@@H](C)C(=O)N1CCC[C@H]1C(=O)N[C@@H](CC(C)C)C(=O)CCl
notes: also called MeOSuc-AAPL-CH2Cl; methoxysuccinyl-AAPL-chloromethyl ketone
effective inhibitory concentration, beta-actin RT-qPCR from HeLa cell lysates [2]: ~0.1 mM
ΔΔGBind (total binding free energy, calculated) [1]: -12.7 kcal/mol

B5: MeOSuc-AlaAlaAlaProLeu-CH2Cl (peptide)
peptide: AAAPL
HELM: PEPTIDE1{[COC(=O)CCC(=O)[*:2]].A.A.A.P.L.[ClC[*:1]]}$$$$V2.0
SMILES: COC(=O)CCC(=O)N[C@@H](C)C(=O)N[C@@H](C)C(=O)N[C@@H](C)C(=O)N1CCC[C@H]1C(=O)N[C@@H](CC(C)C)C(=O)CCl
notes: also called MeOSuc-AAAPL-CH2Cl; A3PL
effective inhibitory concentration, beta-actin RT-qPCR from HeLa cell lysates [2]: ~0.1 mM
lowest inhibitory concentration in the stopped mixture, indirect linked RT-qPCR assay [2]: ~0.05 mM
ΔΔGBind (total binding free energy, calculated) [1]: -30.9 kcal/mol

Continued, values first:

ΔΔGBind (total binding free energy, calculated) [1]: -14.6 kcal/mol
Molecule: methoxysuccinyl-AlaAlaProAla-chloromethyl ketone (peptide)

lowest inhibitory concentration in the stopped mixture, indirect linked RT-qPCR assay [2]: ~0.05 mM
ΔΔGBind (total binding free energy, calculated) [1]: -2.55 kcal/mol
B4: MeOSuc-AlaAlaProPhe-CH2Cl (peptide)
peptide: AAPF
HELM: PEPTIDE1{[COC(=O)CCC(=O)[*:2]].A.A.P.F.[ClC[*:1]]}$$$$V2.0
SMILES: COC(=O)CCC(=O)N[C@@H](C)C(=O)N[C@@H](C)C(=O)N1CCC[C@H]1C(=O)N[C@@H](Cc1ccccc1)C(=O)CCl
notes: also called MeOSuc-AAPF-CH2Cl; MSFCK

lowest inhibitory concentration in the stopped mixture, indirect linked RT-qPCR assay [2]: ~0.5 mM
B6: MeOSuc-AlaProAlaLeu-CH2Cl (peptide)
peptide: APAL
HELM: PEPTIDE1{[COC(=O)CCC(=O)[*:2]].A.P.A.L.[ClC[*:1]]}$$$$V2.0
SMILES: COC(=O)CCC(=O)N[C@@H](C)C(=O)N1CCC[C@H]1C(=O)N[C@@H](C)C(=O)N[C@@H](CC(C)C)C(=O)CCl
